This note sets out measurements from paper doi:10.1101/2023.08.28.555187.

For one assay, the target named is soluble Fc-tagged VEGFR3. Briefly: ELISA. For orientation: In an ELISA, binding on a coated surface is turned into a signal by an enzyme label.
For the next assay, the target named is decorin protein core (UniProt P07585). Kind of assay: ELISA.

Sequence of decorin protein core (P07585 31-359): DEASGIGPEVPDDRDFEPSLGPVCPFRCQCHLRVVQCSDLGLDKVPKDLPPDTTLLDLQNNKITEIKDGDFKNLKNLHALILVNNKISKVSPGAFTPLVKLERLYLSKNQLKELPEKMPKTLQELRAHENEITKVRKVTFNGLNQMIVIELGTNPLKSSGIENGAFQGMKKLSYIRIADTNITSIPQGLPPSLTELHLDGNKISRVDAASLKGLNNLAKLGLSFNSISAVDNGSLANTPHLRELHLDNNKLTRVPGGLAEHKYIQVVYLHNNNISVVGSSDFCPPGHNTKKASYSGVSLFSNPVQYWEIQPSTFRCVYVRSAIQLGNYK

“VEGFC (from UniProt P49767 32-227) (ligand)” gave a percent of bound decorin protein core displaced with soluble Fc-tagged VEGFR3 of 20%.
“decorin protein core (from UniProt P07585 31-359) (natural protein)”: the dissociation constant Kd in the assay with soluble Fc-tagged VEGFR3 came out at 27 nM.
On to soluble Fc-tagged VEGFR3 (Fc fusion), for which the Kd with decorin protein core stood at 47 nM.

What is called Kd is the free concentration of one partner at which half of the binding sites on the other are occupied at equilibrium, for simple one-to-one binding.
